The target of test [1] is T1, GDF11 (UniProt O95390 299-407).
T1 construct: Ligand used in the reporter gene and BiaCore assays; construct not described; also called Growth and Differentiation Factor-11; BMP11
T1 sequence (looked up): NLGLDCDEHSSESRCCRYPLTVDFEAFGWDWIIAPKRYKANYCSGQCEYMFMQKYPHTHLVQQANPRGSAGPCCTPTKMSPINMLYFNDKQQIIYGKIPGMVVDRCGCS
The test can be described thus: cell-based or functional assay.

The target in test [2] is T2, Activin A (UniProt P08476 311-426).
T2 construct: also called ActA
T2 sequence (looked up): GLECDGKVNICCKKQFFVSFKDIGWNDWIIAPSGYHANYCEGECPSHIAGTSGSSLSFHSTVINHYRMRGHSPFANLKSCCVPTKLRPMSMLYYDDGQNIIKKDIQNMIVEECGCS
The test can be described thus: cell-based or functional assay.

The target of test [3] is T1, GDF11. The test can be described thus: BiaCore; ligand coupled to the device, receptor-Fc flowed over. For orientation: Surface plasmon resonance follows binding to a sensor surface in real time, without labels.
Test [4] addresses T2, Activin A. Described as above.
For test [5], the target named is T1, GDF11. The test can be described thus: BiaCore; ligand coupled, receptor-Fc flowed over; legend: -- = <⅕ WT binding.

Positions count from the first letter of the chain named.

“ActRIIB-Fc A64 20-134 (from UniProt Q13705 20-134) (Fc fusion)” came in with a KI, GDF11 Inhibition Activity (cell based assay) in test [1] of 1000 nM. Besides, in test [2], the KI, Activin Inhibition Activity (cell based assay) was found to be 1000 nM.

B1: Soluble ActRIIB-Fc D54A (Fc fusion, UniProt Q13705 19-119, looked up)
chain: SGRGEAETRECIYYNANWELERTNQSGLERCEGEQAKRLHCYASWANSSGTIELVKKGCWLDDFNCYDRQECVATEENPQVYFCCCEGNFCNERFTHLPEA
notes: T0019 variant; whole entry named; not shown: Fc domain
As to B1, the binding result in test [3] is given as “no binding”.

B2: Soluble ActRIIB-Fc E37A (Fc fusion, UniProt Q13705 19-119, looked up)
chain: B1 chain with E19A, A36D
notes: as for B1
Turning to B2, the binding result in test [3] and in test [4] was “no binding” throughout.

B3: Soluble ActRIIB-Fc WT (64R) (Fc fusion, UniProt Q13705 19-119, looked up)
chain: B1 chain with A36D, A46R
notes: as for B1
One may read the Kd as a measure of binding affinity in units of concentration. Lower therefore signals a tighter complex. In turn, B3 showed a Kd in test [3] of 86 nM.

B4: Soluble ActRIIB-Fc D80N (Fc fusion, UniProt Q13705 19-119, looked up)
chain: B1 chain with A36D, D62N
notes: as for B1
On to B4, for which the binding result in test [3] and in test [4] was “no binding” in each case.

B5: Soluble ActRIIB-Fc D80K (Fc fusion, UniProt Q13705 19-119, looked up)
chain: B1 chain with A36D, D62K
notes: as for B1
As to B5, the binding result in test [3] and in test [4] was “no binding” throughout.

B6: Soluble ActRIIB-Fc K74Y (Fc fusion, UniProt Q13705 19-119, looked up)
chain: B1 chain with A36D, K56Y
notes: as for B1
Consider B6, for which the binding result in test [4] was “no binding”. Besides, the “binding relative to WT” value in test [5] was less than 0.2 fold.

B7: Soluble ActRIIB-Fc K55A (Fc fusion, UniProt Q13705 19-119, looked up)
chain: B1 chain with A36D, K37A
notes: as for B1
Take B7: in test [3], the binding result is “no binding”.

B8: Soluble ActRIIB-Fc D80A (Fc fusion, UniProt Q13705 19-119, looked up)
chain: B1 chain with A36D, D62A
notes: as for B1
Turning to B8, the binding result in test [3] and in test [4] was “no binding” each time.

B9: Soluble ActRIIB-Fc W78A (Fc fusion, UniProt Q13705 19-119, looked up)
chain: B1 chain with A36D, W60A
notes: as for B1
For B9, the binding result in test [3] and in test [4] was “no binding” in each case.

B10: Soluble ActRIIB-Fc K74A (Fc fusion, UniProt Q13705 19-119, looked up)
chain: B1 chain with A36D, K56A
notes: as for B1
As for B10, the figures for the Kd in test [3] and in test [4] were 5.3 nM and 4.35 nM, respectively.

B11: Soluble ActRIIB-Fc L79A (Fc fusion, UniProt Q13705 19-119, looked up)
chain: B1 chain with A36D, L61A
notes: as for B1
As to B11, in test [3], the binding result is listed as “no binding”.

B12: Soluble ActRIIB-Fc D80R (Fc fusion, UniProt Q13705 19-119, looked up)
chain: B1 chain with A36D, D62R
notes: as for B1
Consider B12, for which the binding result in test [3] and in test [4] was “no binding” each time.

B13: Soluble ActRIIB-Fc D80M (Fc fusion, UniProt Q13705 19-119, looked up)
chain: B1 chain with A36D, D62M
notes: as for B1
Take B13: the binding result in test [3] and in test [4] was “no binding” in each case.

B14: Soluble ActRIIB-Fc R56A (Fc fusion, UniProt Q13705 19-119, looked up)
chain: B1 chain with A36D, R38A
notes: as for B1
Consider B14, for which the binding result in test [3] and in test [4] was “no binding” each time.

B15: Soluble ActRIIB-Fc D80I (Fc fusion, UniProt Q13705 19-119, looked up)
chain: B1 chain with A36D, D62I
notes: as for B1
With B15, the binding result in test [4] is on record as “no binding”. In addition, in test [5], the “binding relative to WT” value was less than 0.2 fold.

B16: Soluble ActRIIB-Fc K74I (Fc fusion, UniProt Q13705 19-119, looked up)
chain: B1 chain with A36D, K56I
notes: as for B1
Regarding B16, the binding result in test [4] is on record as “no binding”. Also, in test [5], the “binding relative to WT” value is less than 0.2 fold.

B17: Soluble ActRIIB-Fc D80F (Fc fusion, UniProt Q13705 19-119, looked up)
chain: B1 chain with A36D, D62F
notes: as for B1
Consider B17, for which the binding result in test [3] and in test [4] was “no binding” in each case.

B18: Soluble ActRIIB-Fc D80G (Fc fusion, UniProt Q13705 19-119, looked up)
chain: B1 chain with A36D, D62G
notes: as for B1
Take B18: the binding result in test [3] and in test [4] was “no binding” each time.

B19: Soluble ActRIIB-Fc K74F (Fc fusion, UniProt Q13705 19-119, looked up)
chain: B1 chain with A36D, K56F
notes: as for B1
For the molecule B19, in test [4], the binding result is on record as “no binding”. For the same molecule, the “binding relative to WT” value in test [5] was less than 0.2 fold.

The values above are taken from patent US20130071393A1 (published 2013).
